Measured values taken from patent US20120093837A1 (CELL SIGNALING TECHNOLOGY INC A, published 2012).

Legend:
[1] = molecular target: T1, human EGFR with E746-A750 deletion (human, UniProt P00533 25-1210); assay: IHC on paraffin-embedded xenografts and cell pellets
T1 construct: Endogenous mutant EGFR of HCC827 and H1650 cells and of NSCLC tumor samples; also called EGFR (E746-A750del); dEGFR
Method: To test the specificity of binding of the rabbit monoclonal antibodies described in Example 1, xenografts were prepared of human cancer cells in nude mice.
For […] analysis, all analyses were performed on formalin-fixed, paraffin-embedded blocks. Serial 4-um-thick tissue sections were cut from TMAs for immunohistochemistry study. The slides were baked at 55° C. overnight, then deparaffinized in xylene and rehydrated through a graded series of ethanol concentrations. Antigen retrieval (microwave boiling for 10 minutes in 1 mM EDTA) was performed. Intrinsic peroxidase activity was blocked by 3% hydrogen peroxide for 10 min. 5% goat serum (Sigma) solution was used for blocking nonspecific antibody binding, and the optimally diluted primary antibodies were applied to cover the specimen. Slides were incubated at 4° C. overnight. After three washes in TBS-T for 5 minutes each, slides were incubated for 30 min with labeled polymer-HRP anti-rabbit secondary antibody at room temperature. Following three additional washes in TBS-T, slides were visualized using substrate-chromagen (Envision™+kit, commercially available from Dako). Sections were scanned at low magnification. Intensity of the staining as well as percentage of positive cells was recorded. Stain intensity was scored from 0 to 3+, based on the, staining intensity and percentage of positive cells were recorded.

[2] = molecular target: phage-displayed peptide …; assay: phage display biopanning on plate-coated antibody, PhD 12 library, three rounds

binding result [1]: no binding | Clone Frequency [2]: 1 of 9 clones
B1: EGFR L858R (43B2E11E5B2) rabbit monoclonal antibody (antibody, V domains shown)
VH: QSVEESGGRLVTPGTPLTLTCTVSGFSLNTYGVSWVRQAPGKGLEWIGYIFTDGQTYYASWAKGRFTISKTSSTTVDLKITSPTTEDTATYFCASVDIWGPGTPVTVSS
VL: AQVLTQTPSPVSAAVGSTVTIKCQSSPSVYSNYLSWYQQKSGQPPKQLIYDASHLASGVPSRFSGSGSGTQFTLTISGVQCDDAATYYCLGSYDCSSVDCHAFGGGTEVVVKG
notes: Rabbit monoclonal from a hybridoma clone; also called L858R RmAb; L858R-specific antibody
